Results taken from article PMC2787013, “DNA Specificity Determinants Associate with Distinct Transcription Factor Functions”.

Key:
Assay in all cases: EMSA; Protein 3-fold dilutions with 1e-11 (M) 32P-dsDNA, 30 min on ice, 6% polyacrylamide gel; binding buffer as in earlier paper (not given); protein dialysis buffer 10 mM Tris pH 7.9, 0.5 mM EDTA, 50 mM KCl, 1 mM DTT, 10% glycerol
Settings in all cases: protein: recombinant; tags: N-terminal 6xHis (pET28a); label: 32P; (only one strand given)
[1] = target: T1, ETS1 (p51) (human, UniProt P14921 1-441)
T1 sequence: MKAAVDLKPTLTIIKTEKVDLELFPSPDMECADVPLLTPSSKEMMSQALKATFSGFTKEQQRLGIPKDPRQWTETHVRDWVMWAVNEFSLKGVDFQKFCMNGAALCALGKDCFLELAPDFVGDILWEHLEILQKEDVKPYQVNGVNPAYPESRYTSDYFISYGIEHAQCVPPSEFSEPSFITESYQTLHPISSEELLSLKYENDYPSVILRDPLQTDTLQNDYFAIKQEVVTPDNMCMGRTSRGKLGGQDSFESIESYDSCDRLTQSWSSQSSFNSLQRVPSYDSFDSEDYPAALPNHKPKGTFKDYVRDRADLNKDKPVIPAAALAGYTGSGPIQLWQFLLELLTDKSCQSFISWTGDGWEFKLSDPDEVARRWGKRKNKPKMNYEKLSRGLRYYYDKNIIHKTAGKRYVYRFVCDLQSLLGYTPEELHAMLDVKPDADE

[2] = target: T2, ELF1 (human, UniProt P32519 1-619)
[3] = target: T1, ETS1 (p51); remark: listed apart in the source
[4] = target: T2, ELF1; remark: listed apart in the source

T2 sequence (P32519 whole entry): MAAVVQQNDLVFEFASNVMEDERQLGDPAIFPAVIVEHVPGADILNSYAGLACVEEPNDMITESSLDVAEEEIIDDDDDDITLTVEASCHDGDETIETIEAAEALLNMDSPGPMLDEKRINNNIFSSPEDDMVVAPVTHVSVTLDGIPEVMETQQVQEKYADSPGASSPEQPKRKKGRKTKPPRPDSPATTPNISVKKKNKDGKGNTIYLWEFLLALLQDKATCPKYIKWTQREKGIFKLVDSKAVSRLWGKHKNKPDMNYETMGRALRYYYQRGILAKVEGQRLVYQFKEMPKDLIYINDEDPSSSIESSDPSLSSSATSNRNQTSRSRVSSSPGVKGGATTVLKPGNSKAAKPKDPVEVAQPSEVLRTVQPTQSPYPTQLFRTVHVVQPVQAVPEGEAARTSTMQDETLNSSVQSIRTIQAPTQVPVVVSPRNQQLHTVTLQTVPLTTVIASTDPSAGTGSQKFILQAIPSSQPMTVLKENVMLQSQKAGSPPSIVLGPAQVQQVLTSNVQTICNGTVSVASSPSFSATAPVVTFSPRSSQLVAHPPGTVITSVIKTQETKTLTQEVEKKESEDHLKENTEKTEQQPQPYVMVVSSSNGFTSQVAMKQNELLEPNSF

B1: ETS consensus CCGGAAGT (dsDNA)
DNA 1: GGCCAAGCCGGAAGTGTGTGGTAAACACTTT
DNA 2: AAAGTGTTTACCACACACTTCCGGCTTGGCC
Kd [1]: 1.7 nM | Kd [2]: 0.17 nM

B2: A to T variant CCGGATGT (dsDNA)
DNA 1: GGCCAAGCCGGATGTGTGTGGTAAACACTTT
DNA 2: AAAGTGTTTACCACACACATCCGGCTTGGCC
binding signal [3]: 1 fold decrease in affinity vs N1 | binding signal [4]: 3.6 fold decrease in affinity vs N1

B3: C to A variant CAGGAAGT (dsDNA)
DNA 1: GGCCAAGCAGGAAGTGTGTGGTAAACACTTT
DNA 2: AAAGTGTTTACCACACACTTCCTGCTTGGCC
binding signal [3]: 1.5 fold decrease in affinity vs N1 | binding signal [4]: 1.9 fold decrease in affinity vs N1

B4: double variant CAGGATGT (dsDNA)
DNA 1: GGCCAAGCAGGATGTGTGTGGTAAACACTTT
DNA 2: AAAGTGTTTACCACACACATCCTGCTTGGCC
binding signal [3]: 2.4 fold decrease in affinity vs N1 | binding signal [4]: 18.3 fold decrease in affinity vs N1
